Experimental data from PMC3400628 (PLoS ONE, 2012).

Target: T1, Flag-NOD2 (human, UniProt Q9HC29 1-1040)
T1 construct: NOD2, human; The deletion constructs count up to aa 1040, the length of whole NOD2; also called NOD2 WT; Flag-NOD2 WT; source: HEK293T, transfected, in lysate; not shown: Flag, N-terminal, kept
Conditions: partners not purified

- fold change of TRIM27 co-precipitated with NOD2 at 3 h after 10 µM MDP against untreated controls: > 2 fold
B1: myc-TRIM27 WT (natural protein, human, UniProt P14373 1-513, looked up)
chain: MASGSVAECLQQETTCPVCLQYFAEPMMLDCGHNICCACLARCWGTAETNVSCPQCRETFPQRHMRPNRHLANVTQLVKQLRTERPSGPGGEMGVCEKHREPLKLYCEEDQMPICVVCDRSREHRGHSVLPLEEAVEGFKEQIQNQLDHLKRVKDLKKRRRAQGEQARAELLSLTQMEREKIVWEFEQLYHSLKEHEYRLLARLEELDLAIYNSINGAITQFSCNISHLSSLIAQLEEKQQQPTRELLQDIGDTLSRAERIRIPEPWITPPDLQEKIHIFAQKCLFLTESLKQFTEKMQSDMEKIQELREAQLYSVDVTLDPDTAYPSLILSDNLRQVRYSYLQQDLPDNPERFNLFPCVLGSPCFIAGRHYWEVEVGDKAKWTIGVCEDSVCRKGGVTSAPQNGFWAVSLWYGKEYWALTSPMTALPLRTPLQRVGIFLDYDAGEVSFYNVTERCHTFTFSHATFCGPVRPYFSLSYSGGKSAAPLIICPMSGIDGFSGHVGNHGHSMETSP
notes: TRIM27, human, full length (aa 1-513 by the deletion constructs); cDNA from ImaGenes; also called RFP; source: HEK293T, transfected, in lysate; not shown: 3xmyc, N-terminal, kept
